{"source": "paper PMC4787809", "about": "(Nucleic Acids Research, 2015)", "molecules": {"B1": {"name": "72 bp dsDNA target (+21), CAT PAM (dsDNA)", "DNA 1": "GCGCGGCAAGCCGAAAGCATGACGGTATTGTTCAGATCCTGGCTTGCCAACAGTGATTGCTCGGGAGTCGCT", "DNA 2": "AGCGACTCCCGAGCAATCACTGTTGGCAAGCCAGGATCTGAACAATACCGTCATGCTTTCGGCTTGCCGCGC"}, "B2": {"name": "Cas5e (subunit of E. coli Cascade) (natural protein)", "chain": "MRSYLILRLAGPMQAWGQPTFEGTRPTGRFPTRSGLLGLLGACLGIQRDDTSSLQALSESVQFAVRCDELILDDRRVSVTGLRDYHTVLGAREDYRGLKSHETIQTWREYLCDASFTVALWLTPHATMVISELEKAVLKPRYTPYLGRRSCPLTHPLFLGTCQASDPQKALLNYEPVGGDIYSEESVTGHHLKFTARDEPMITLPRQFASREWYVIKGGMDVSQ"}, "B3": {"name": "Cas7 as in the crystallised Cascade (natural protein)", "chain": "MSNFINIHVLISHSPSCLNRDDMNMQKDAIFGGKRRVRISSQSLKRAMRKSGYYAQNIGESSLRTIHLAQLRDVLRQKLGERFDQKIIDKTLALLSGKSVDEAEKISADAVTPWVVGEIAWFCEQVAKAEADNLDDKKLLKVLKEDIAAIRVNLQQGVDIALSGRMATSGMMTELGKVDGAMSIAHAITTHQVDSDIDWFTAVDDLQEQGSAHLGTQEFSSGVFYRYANINLAQLQENLGGASREQALEIATHVVHMLATEVPGAKQRTYAAFNPADMVMVNFSDMPLSMANAFEKAVKAKDGFLQPSIQAFNQYWDRVANGYGLNGAAAQFSLSDVDPITAQVKQMPTLEQLKSWVRNNGEA"}}, "key": {"[1]": {"target": "Cascade (Cas7-tagged prep) (Escherichia coli) (UniProt Q46901+P76632+Q46899+Q46898+Q46897)", "assay": "EMSA"}, "[2]": {"target": "T1, Cascade (Cse2-tagged prep) (Escherichia coli, UniProt Q46901;P76632;Q46899;Q46898;Q46897 1-502;1-160;1-363;1-224;1-199)", "T1 sequence 1": "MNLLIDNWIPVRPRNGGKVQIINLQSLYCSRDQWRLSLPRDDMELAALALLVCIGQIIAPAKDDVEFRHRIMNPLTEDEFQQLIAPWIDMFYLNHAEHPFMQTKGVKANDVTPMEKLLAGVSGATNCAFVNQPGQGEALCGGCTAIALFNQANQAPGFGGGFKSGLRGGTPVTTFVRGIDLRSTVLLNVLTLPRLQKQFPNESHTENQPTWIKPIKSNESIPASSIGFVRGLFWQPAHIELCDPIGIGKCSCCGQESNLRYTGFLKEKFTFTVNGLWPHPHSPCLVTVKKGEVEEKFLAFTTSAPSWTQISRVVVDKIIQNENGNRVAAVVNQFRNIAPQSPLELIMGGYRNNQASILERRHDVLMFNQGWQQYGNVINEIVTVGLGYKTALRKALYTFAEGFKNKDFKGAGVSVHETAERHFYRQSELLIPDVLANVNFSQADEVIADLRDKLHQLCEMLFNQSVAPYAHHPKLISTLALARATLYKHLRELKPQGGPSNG", "T1 sequence 2": "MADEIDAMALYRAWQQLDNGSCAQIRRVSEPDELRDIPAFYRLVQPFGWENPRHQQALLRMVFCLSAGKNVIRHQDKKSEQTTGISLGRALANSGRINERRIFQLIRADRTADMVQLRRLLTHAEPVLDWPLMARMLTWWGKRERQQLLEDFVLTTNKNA", "T1 sequence 3": "B3 chain", "T1 sequence 4": "B2 chain", "T1 sequence 5": "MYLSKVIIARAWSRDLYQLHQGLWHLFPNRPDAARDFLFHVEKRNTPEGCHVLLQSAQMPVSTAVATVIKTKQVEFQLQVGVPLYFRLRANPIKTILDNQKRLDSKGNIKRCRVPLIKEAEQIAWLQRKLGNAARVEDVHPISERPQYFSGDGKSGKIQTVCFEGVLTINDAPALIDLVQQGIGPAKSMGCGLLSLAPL", "assay": "EMSA"}, "[3]": {"target": "T2, Cse1 (tail subunit of E. coli Cascade) (Escherichia coli K12, UniProt Q46901 1-502)", "T2 sequence": "T1 sequence 1", "assay": "crystal structure"}, "crystal structure": {"target": "the molecule itself", "assay": "crystal structure"}}, "data": [{"molecule": "GCGCGGCAAGCCGAAAGCATGACGGTATTGTTCAGATCCTGGCTTGCCAACAGTGATTGCTCGGGAGTCGCT (double strand) [72 bp dsDNA target (+21), CAT PAM]", "values": [{"measurement": "Kd", "setting": "[1]", "result": 13.3, "unit": "nM"}]}, {"molecule": "B1", "values": [{"measurement": "Kd", "setting": "[2]", "result": 1.14, "unit": "nM"}]}, {"molecule": "B2", "values": [{"measurement": "binding result", "setting": "[3]", "result": "binds"}]}, {"molecule": "B3", "values": [{"measurement": "stoichiometry N", "setting": "crystal structure", "result": 6}]}]}
